Starred links: 1 amine or outer side, 2 acyl side, 3 side chain; linkers in the order of their positions; H or OH if unused. Positions of bridges follow the written chain, without caps; N, C: chain ends. Non-standard residues stand in square brackets, D forms with d. Residues, ends and D or L forms follow the SMILES beside them. Chains are numbered I, II in the order given. Actinocin(9to1) = Cc1c2oc3c(C)ccc(C(=O)[*:1])c3nc-2c(C(=O)[*:2])c(N)c1=O; NMeV = CN[C@H](C(=O)O)C(C)C; Sar = CNCC(=O)O
Columns and labels:
cGAS [1] = molecular target: T1, cGAS (Homo sapiens, UniProt Q8N884); assay: Thin-layer chromatography based (radiolabeled TLC) cGAS activity assay with DNA intercalators; format: biochemical; design: DNA-dependent human cGAS activity was assayed with recombinant full-length cGAS and HT-DNA; implied by Ni-NTA capture and imidazole elution; made in house; host or cells: BL21-RIL DE3 E. coli; conditions: 100 μM concentration
T1 sequence (Q8N884 whole entry): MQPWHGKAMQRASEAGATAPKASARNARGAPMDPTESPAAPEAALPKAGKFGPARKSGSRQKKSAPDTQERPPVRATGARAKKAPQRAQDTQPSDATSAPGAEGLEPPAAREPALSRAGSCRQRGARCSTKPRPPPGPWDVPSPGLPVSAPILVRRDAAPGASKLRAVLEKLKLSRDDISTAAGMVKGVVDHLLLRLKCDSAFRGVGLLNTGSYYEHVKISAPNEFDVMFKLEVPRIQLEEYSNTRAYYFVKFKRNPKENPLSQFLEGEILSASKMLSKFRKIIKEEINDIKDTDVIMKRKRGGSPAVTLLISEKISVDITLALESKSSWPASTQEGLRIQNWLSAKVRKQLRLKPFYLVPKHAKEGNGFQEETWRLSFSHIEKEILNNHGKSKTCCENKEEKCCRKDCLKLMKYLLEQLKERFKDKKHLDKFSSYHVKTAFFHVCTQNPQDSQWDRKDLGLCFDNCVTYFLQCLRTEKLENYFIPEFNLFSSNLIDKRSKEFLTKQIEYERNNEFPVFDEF
Description: Quinacrine intercalation can lengthen the B-form DNA helix but otherwise would not grossly alter conformation (Hossain et al., (2008). DNA intercalation by quinacrine and methylene blue: a comparative binding and thermodynamic characterization study. DNA Cell Biol 27, 81-90). To support the proposed mechanism of action, other DNA intercalators were tested for effects on cGAS activity. The radiolabeled TLC assay was employed in order to avoid possible complications in data interpretation from compounds interacting with the RNA biosensor. […] Importantly, the enzyme-independent effect of compounds on fluorescence of the RNA biosensors can easily be analyzed in control reactions, which allows one to distinguish compounds in the screen that likely interact with the DNA instead of the enzyme directly.
DNA-dependent human cGAS activity was assayed with recombinant full-length cGAS and HT-DNA (Sigma-Aldrich, St Louis, Mo.). cGAS (estimated final concentration 1.5 μM) or equal volumes of water were incubated with HT-DNA (final concentration 0.1 mg/ml) in the presence of 250 μM ATP and GTP and [a-32P] ATP or GTP (˜30 nM) as indicated. All reactions included 100 mM NaCl, 10 mM MgCl2, 40 mM Tris-HCl (pH 7.5), and reactions were incubated at 37° C. for 1.5 hr. Reactions were terminated with the addition of 5 U of alkaline phosphatase (New England Biolabs) and incubation at 37° C. for 30 min. One microliter of each reaction was spotted onto a PEI-Cellulose F thin-layer chromatography plate (EMD Millipore), and reaction products were separated with the use of 1.5 M KH2PO4 (pH 3.8) as solvent. Plates were dried and radiolabeled products were detected with a phosphor screen and the Typhoon phosphorimager (GE Life Sciences).

Spinach2 aptamer = assay: Fluorescence of dye-binding Spinach2 aptamer in presence of quinacrine (control); conditions: dose-dependent (FIG. 10)
Description: FIG. 10 illustrates dose-dependent loss of fluorescence in presence of QC for both the 2′, 3′-cGAMP biosensor and Spinach2 aptamer.
Quinacrine is a DNA intercalator that may disrupt biosensor function by intercalating into the RNA helices.

cGAS [2] = conditions: radiolabeled TLC assay, Gray et al. 2015; cited from earlier work
cGAS [3] = molecular target: T1, cGAS; assay: cGAS inhibition assay read out by RNA-based fluorescent biosensor; format: biochemical; design: implied by Ni-NTA capture and imidazole elution; made in house; host or cells: BL21-RIL DE3 E. coli; conditions: decrease of signal independent of enzyme activity, called artefactual, read-out: apparent IC50
Description: To initiate the enzyme reaction, 0.5 μL of HT-DNA was added to 2.5 μL of 6× enzyme reaction solution containing cGAS, GTP, ATP and cGAS reaction buffer. Generally, final concentrations are 100m/mL HT-DNA, 1.5 μM cGAS, 200 μM GTP, 200 μM ATP, and cGAS reaction buffer (40 mM Tris-HCl (pH 7.5), 100 mM NaCl, 10 mM MgCl2). The reaction was incubated at 37° C. for 2 hours to allow the enzyme reaction to proceed. […] To initiate the fluorescent biosensor reaction, 3 μL of the enzyme reaction was added to 27 μL of biosensor reaction solution containing renatured RNA, DFHBI (or DFHBI-1T), and biosensor activation buffer. Final concentrations are 200 nM RNA, 10 μM DFHBI (or DFHBI-1T), 40 mM HEPES, pH 7.5, 125 mM KCl, 10 mM MgCl2, and 0.1×cGAS reaction buffer (40 mM Tris-HCl (pH 7.5), 100 mM NaCl, 10 mM MgCl2). […] For the inhibition assay, due to the fluorescence of Quinacrine dihydrochloride, DFHBI-1T was used instead. Samples containing only Quinacrine dihydrochloride of varied concentration in the buffer were used for background fluorescence subtraction.

[4] = In vitro fluorescence assay of GEMM-II riboswitch-based biosensors with c-di-GMP (binding affinity, turn-on); conditions: for fold turn-on: 100 nM RNA, 100 μM c-di-GMP; for Kd: ligand c-di-GMP
Description: (§1) In vitro fluorescence assays were carried out in a buffer containing 40 mM HEPES, pH 7.5, 125 mM KCl. Other conditions, including temperature, concentrations of MgCl2, DFHBI (or DFHBI-1T), ligand (or cell extract) and RNA were varied in different experiments and are indicated in the figures. The RNA was renatured in buffer at 70° C. for 3 min and cooled to ambient temperature for 5 min prior to addition to the reaction solution. DFHBI (or DFHBI-1T) was added to a solution containing buffer and ligand, and then RNA was added at the end before fluorescence measurement. Binding reactions were performed either in 100 μL volumes (96-well plate) or 30 μL (384-well plate) and were incubated at the indicated temperature in either a Corning Costar 3915 96-well black plate or Greiner 781077 384-well black plate until equilibrium was reached, which typically takes 30 to 60 minutes. The fluorescence emission was measured using a Molecular Devices SpectraMax Paradigm Multi-Mode detection platform plate reader (Sunnyvale, Calif.) with the following instrument parameters (for DFHBI): 448 nm excitation, 506 nm emission. In case of DFHBI-1T 470 nm excitation and 510 nm emission was used.
(§2) To measure the binding affinities of 2′, 3′-cGAMP biosensors, fluorescence assays were performed with the following conditions: 37° C., 3 mM MgCl2, 200 nM RNA, and 10 μM DFHBI. The 2′, 3′-cGAMP concentration (ccGAMP) was varied, and the fluorescence of the sample with DFHBI but no RNA was subtracted as background to determine relative fluorescence units. The ratio between the fraction of biosensor that is bound by 2′, 3′-cGAMP and the total 2′, 3′-cGAMP biosensor concentration is given as:
(§3) where Fmin is the fluorescence of the sample containing no 2′,3′-cGAMP, while Fmax is the fluorescence of the sample containing highest concentration of 2′,3′-cGAMP (100 μM). The dissociation constants Kd were determined by least squares fitting to the following equation in Graphpad Prism software: […]

[5] = In vitro fluorescence assay of GEMM-II riboswitch-based biosensors with 3′,3′-cGAMP (binding affinity, turn-on); conditions: for fold turn-on: 100 nM RNA, 100 μM 3′,3′-cGAMP; for Kd: ligand 3′,3′-cGAMP
Description: as §1, §2, §3

[6] = In vitro fluorescence assay of GEMM-II riboswitch-based biosensors with 2′,3′-cGAMP (binding affinity, turn-on); conditions: for fold turn-on / Kd: 200 nM RNA; for fold turn-on: 100 μM 2′,3′-cGAMP; for Kd: ligand 2′,3′-cGAMP, 37° C., 3 mM Mg2+, 10 μM DFHBI, read-out: Kd (apparent dissociation constant)
Description: as §1, §2, §3

E. coli BL21-Star cells = assay: In vivo fluorescence assay by flow cytometry, biosensor co-expressed with cyclic dinucleotide synthases (WspR, DncV, cGAS); conditions: live E. coli, DFHBI-1T, DncV or cGAS co-expressed

| Molecule | inhibition of cGAS activity (cGAS [1]) | fold turn-on [4] | Kd [4] | fold turn-on [5] | Kd [5] | fold turn-on [6] | Kd [6] | further results |
| --- | --- | --- | --- | --- | --- | --- | --- | --- |
| CN(C)c1ccc2nc3ccc(=[N+](C)C)cc-3sc2c1 [methylene blue] | no effect | – | – | – | – | – | – | – |
| Cc1c2oc3c(C)ccc(C(=O)N[C@@H]4C(=O)N[C@H](C(C)C)C(=O)N5CCC[C@H]5C(=O)N(C)CC(=O)N(C)[C@@H](C(C)C)C(=O)O[C@@H]4C)c3nc-2c(C(=O)N[C@@H]2C(=O)N[C@H](C(C)C)C(=O)N3CCC[C@H]3C(=O)N(C)CC(=O)N(C)[C@@H](C(C)C)C(=O)O[C@@H]2C)c(N)c1=O [Actinomycin D] (I: T[dV]P[Sar][NMeV] / II: T[dV]P[Sar][NMeV]; ester I:1-I:C, II:1-II:C; linker I:N-II:N via Actinocin(9to1)) | partial inhibition | – | – | – | – | – | – | – |
| CCN(CC)CCCC(C)Nc1c2ccc(Cl)cc2nc2ccc(OC)cc12 (centres unmarked) [Quinacrine] | fully inhibited | – | – | – | – | – | – | effect on fluorescence of Spinach2 aptamer (Spinach2 aptamer): decreased fluorescence; IC50 (cGAS [2]): 13 µM; IC50 (cGAS [3]): 39 ± 7 µM |
| Bh P1-6 WT: GEMM-II riboswitch (Bacillus halodurans C-125)-Spinach2 biosensor, 6 base-paired P1 stem, SEQ ID NO: 12 (nucleic acid, synthetic nucleic acid) GATGTAACTGAATGAAATGGTGAAGGACGGGTCCAAATAGGGAAGCAACGAAGCATAGCCTTTATATGGACACTTGGGTTATGTGGAGCTACTAGTGTAACCGGCCCTCCTTTTGTTGAGTAGAGTGTGAGCTCCGTAACTAGTTACATC | – | (13.1x) fold | 0.056 µM | (10.8x) fold | > 11 µM | – | – | fluorescence activation with c-di-GMP ([4]; FIG. 17, panel B screen): 5 fold; Kd ([5]; listed as wild-type Bh P1-6): > 10 µM; fluorescence response to 2′,3′-cGAMP (in words) ([6]; 20 μM ligand): no response |
| Bh P1-6 G103A: Bh P1-6 biosensor with G103A mutation in the binding pocket, SEQ ID NO: 18; G73A in b172, b180 likely the same (nucleic acid, synthetic nucleic acid, G73A, b180 likely the same) GATGTAACTGAATGAAATGGTGAAGGACGGGTCCAAATAGGGAAGCAACGAAGCATAGCCTTTATATGGACACTTGGGTTATGTGGAGCTACTAGTGTAACCAGCCCTCCTTTTGTTGAGTAGAGTGTGAGCTCCGTAACTAGTTACATC | – | (8.2x) fold | > 7.4 µM | (9.6x) fold | 0.8 µM | (10.3) fold | > 65 µM | reduction of binding affinity to c-di-GMP relative to wild-type Bh P1-6 ([4]; G103A versus wild-type): more than 125 fold; increase of binding affinity to 3′,3′-cGAMP relative to wild-type Bh P1-6 ([5]; G103A versus wild-type): more than 10 fold; fluorescence activation in response to 2′,3′-cGAMP ([6]; 200 nM biosensor, 20 μM ligand): 5 fold; cellular fluorescence activation upon co-expression of each enzyme (E. coli BL21-Star cells): Significant fluorescence activation |
| Bh P1-5delC: Bh GEMM-II riboswitch fused to Spinach2 via 5 base-paired P1 stem with deletion of a single C, SEQ ID NO: 16 (nucleic acid, synthetic nucleic acid) GATGTAACTGAATGAAATGGTGAAGGACGGGTCCAATAGGGAAGCAACGAAGCATAGCCTTTATATGGACACTTGGGTTATGTGGAGCTACTAGTGTAACCGGCCCTCTTTGTTGAGTAGAGTGTGAGCTCCGTAACTAGTTACATC | – | – | 0.021 ± 0.008 µM | – | – | (5.1x) fold | 13.4 ± 0.9 µM | – |
